Test results: the supplement of paper PMC10724198
± gives the standard deviation of the averaged measurements.

test system: Saccharomyces cerevisiae; assay: protein stability index of tFT-peptide fusion (C-terminal peptide) (PSI (0-1 scale)); higher = more stable (slower turnover); conditions: genetic background: wild type; temperature: 30 C
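Note: PSI is a weighted mean of sequencing reads over stability bins, variants kept only with over 10 reads, mCherry proximal and sfGFP distal, peptide attached via GGGS linker.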

In order of falling protein stability index:
1. GMGTWSSNRREC  0.872 ± 0.18
2. SVVSWRGRNRSV  0.864 ± 0.065
3. CSPRPPPRSLHP  0.812 ± 0.024
4. WRKMSNDIRGRW  0.799 ± 0.11
5. KKKKKTKNIKKT  0.794 ± 0.059
6. ADAFDRGRISVV  0.792 ± 0.11
7. CDRVAQWTYPDA  0.783 ± 0.084
8. YHIGSINLTVRQ  0.778 ± 0.083
9. GQWGGATLGLVG  0.777 ± 0.021
10. LPGFPPSLLPRL  0.777 ± 0.059
11. DRQGMIGLKYVK  0.776 ± 0.11
12. KQLEKRKRIIEE  0.7644 ± 0.0035
13. LLSPSPPLLPPL  0.763 ± 0.036
14. YVEVIDERYPCV  0.757 ± 0.021
15. GDRGGLARAGGA  0.753 ± 0.065
16. LCLFSVRPARLL  0.753 ± 0.13
17. ELRADRTYTGIV  0.752 ± 0.054
18. FPPCCSSFFGFF  0.752 ± 0.024
19. EGTIDSGRHSLK  0.752 ± 0.15
20. FAPAWQTRLGCP  0.7514 ± 0.0026
21. SIFSFCSNTWFL  0.747 ± 0.029
22. PLGPLLSPLSPP  0.743 ± 0.014
23. FGWVGYGCGVWW  0.741 ± 0.12
24. HRNPNLPFPPPL  0.74 ± 0.069
25. HPPSPPPPAPSC  0.738 ± 0.02
26. FHFLNLLIPFPR  0.737 ± 0.061
27. PPPAPRTPPLLP  0.736 ± 0.029
28. QVHPKRPLNQSL  0.735 ± 0.054
29. GVLPVDKFLKNW  0.735 ± 0.098
30. ALRVSGAYREHS  0.735 ± 0.032
31. FVHSTLPPSFSI  0.735 ± 0.019
32. PTSLPLPPPSLS  0.7333 ± 0.0056
33. TIRKKKNRRNKE  0.731 ± 0.016
34. SKGLPADSQQPF  0.729 ± 0.054
35. ARLATLSPEMAN  0.729 ± 0.082
36. SPLFPPIPSSLS  0.7278 ± 0.00076
37. AAGWRPEGSGAF  0.725 ± 0.033
38. LAVPPSLPPPTR  0.7254 ± 0.0063
39. FPISPSQSQSLP  0.724 ± 0.076
40. TPAPFSSHLVRR  0.723 ± 0.083
41. RNSPLFLESPGS  0.723 ± 0.034
42. LPGSLISPSSPP  0.721 ± 0.021
43. DRCLFRFNLWGG  0.7203 ± 0.0063
44. PPLPPLPPLPPP  0.72 ± 0.08
45. LTFGAPGACGLG  0.719 ± 0.024
46. LLHPFPPLCRHP  0.716 ± 0.018
47. CLPHYSQVLLNW  0.715 ± 0.098
48. AGFTATTPIRGV  0.715 ± 0.022
49. HSAVRMGTRGRG  0.715 ± 0.049
50. IAKAVCESLCLQ  0.7146 ± 0.0063
51. KNIERKKNTKIR  0.714 ± 0.017
52. ILPPPPPPPPPF  0.714 ± 0.039
53. KTKKIWKKKSNI  0.713 ± 0.011
54. SFLVLRGSGGKW  0.713 ± 0.082
55. ISVSRLRMKDRN  0.713 ± 0.22
56. FPIWYPSSSFPR  0.711 ± 0.013
57. GGPPFAPPPPPH  0.71 ± 0.026
58. GARVGDRALASG  0.7089 ± 0.0069
59. VLRGSFPWLSPV  0.7084 ± 0.0048
60. CEEQQPGFKPLL  0.706 ± 0.04
61. PPTPGPPPLRYP  0.705 ± 0.068
62. PPPNLSSGVPFI  0.7051 ± 0.0025
63. PRSLLSPPGSVD  0.704 ± 0.026
64. SSSPLPPPRLPP  0.7039 ± 0.0016
65. PLPPLLLPPPLP  0.703 ± 0.046
66. PQRPPPALACPP  0.703 ± 0.083
67. FSLPLCAITGPQ  0.702 ± 0.056
68. RGGGGGEWGEQR  0.702 ± 0.046
69. HLSPPLPPAPTS  0.7022 ± 0.0063
70. VGLLGCGMNGGR  0.701 ± 0.068
71. CGACGFGLGVWV  0.701 ± 0.021
72. PPLPAPPAPAVQ  0.6991 ± 0.0027
73. DSPRTFWGPTQK  0.699 ± 0.055
74. APDRLPLSRCPA  0.699 ± 0.02
75. GRGGLGWGEWDR  0.699 ± 0.03
76. TQKKSTQLIKKK  0.698 ± 0.067
77. LRLFAGTFSGTP  0.698 ± 0.03
78. YSILYRMQNSKI  0.696 ± 0.021
79. LPPASSPPLLTP  0.696 ± 0.083
80. HIHKKGPSGHQK  0.696 ± 0.028
81. SQPLPNRLKTRG  0.695 ± 0.032
82. PPQTSVASRPTR  0.695 ± 0.019
83. AGVDKWLMCEVS  0.695 ± 0.034
84. PGPPPPPPPLYP  0.6947 ± 0.0063
85. IAQVDLPDRMKT  0.6937 ± 0.0061
86. LGVVCLGADLLR  0.693 ± 0.026
87. LTRRCPVGAWGN  0.692 ± 0.012
88. GVGGCRVRGLGA  0.691 ± 0.017
89. PFSLTTLFSPLL  0.691 ± 0.031
90. VSSTLVARTVWC  0.69 ± 0.035
91. ITPLVQRPSSLR  0.689 ± 0.088
92. VWAVALSRQGPC  0.689 ± 0.016
93. AGLVADGYWLRR  0.6892 ± 0.005
94. DSHRRPGSPPPL  0.688 ± 0.11
95. SAACQRWGYLRV  0.68781 ± 0.00045
96. RPGNIRNNKKKK  0.688 ± 0.021
97. LLPLLPPAPPSP  0.687 ± 0.024
98. SKKLRRNKYRNG  0.6871 ± 0.0039
99. PNPRSPRPSPPS  0.687 ± 0.038
100. IARYLGRYERNV  0.687 ± 0.042
101. ARLPSSRLDLSP  0.686 ± 0.056
102. PKSTDVPPVRRE  0.686 ± 0.088
103. IVGKMRRQKTKI  0.685 ± 0.057
104. PSLNPRVSFVNL  0.685 ± 0.0073
105. YNSSSYCGGGCG  0.6844 ± 0.0053
106. TLHEDVMFYSRM  0.6843 ± 0.0067
107. PSYLALPLSTSP  0.684 ± 0.024
108. SVNWVWNSVFDR  0.6826 ± 0.0024
109. FPPLLFSSPPLP  0.683 ± 0.018
110. LPAPPPPPRPLA  0.683 ± 0.021
111. PPLLPLSQPLPH  0.683 ± 0.038
112. RLGGGGCVWVRG  0.683 ± 0.027
113. DQDVPLWGLVSM  0.682 ± 0.054
114. FPPPRYPRRPTA  0.682 ± 0.018
115. FLSWTAYRPSST  0.682 ± 0.0075
116. ERMVENNVKGRK  0.6811 ± 0.0027
117. YPPPRPDLPLLQ  0.679 ± 0.016
118. STSDAFLTFPLQ  0.678 ± 0.051
119. RNKRKKNKDKIK  0.677 ± 0.051
120. GIRVEWVGRNRC  0.676 ± 0.023
121. REKSLKINKKKN  0.676 ± 0.0068
122. KKKHKKKKKKKE  0.676 ± 0.073
123. LPSPRPSPSRVP  0.676 ± 0.038
124. KGEGRNRRGVPR  0.675 ± 0.019
125. KRNIKKKKTNLR  0.675 ± 0.087
126. SPRHAGSSAWRP  0.674 ± 0.064
127. SLHSSQYTRHSG  0.673 ± 0.024
128. PSPPPVSPVVPP  0.672 ± 0.036
129. KPKKKKKDEQTI  0.672 ± 0.035
130. LEGGAGRPDGTG  0.671 ± 0.047
131. SGRIASQACLIW  0.671 ± 0.045
132. GAGRGRLGVGPV  0.67 ± 0.066
133. HLPPLHRLSPPI  0.668 ± 0.04
134. MGVGINSGDKLC  0.667 ± 0.11
135. GVGGGVMGVGRV  0.665 ± 0.01
136. LWPVSMTSSFFF  0.661 ± 0.048
137. SDVFGGVLSFGF  0.6613 ± 0.0008
138. LGAHRPLLSVLH  0.661 ± 0.037
139. LPLSFPTLPPPP  0.66 ± 0.055
140. FFGNGSGPWVLV  0.6597 ± 0.0018
141. IDDITMYRKKYR  0.66 ± 0.047
142. SVAAGCGHGGGG  0.657 ± 0.011
143. LPVDPPLGGHPT  0.655 ± 0.03
144. GVYFMGVLGREG  0.655 ± 0.067
145. ETVLQVRRRVVR  0.6553 ± 0.0028
146. LDKGNQDHEWTR  0.654 ± 0.023
147. HSCPVCVGWNYS  0.654 ± 0.047
148. GLREGRRRSNDQ  0.653 ± 0.12
149. PPLGPRPPSNST  0.6522 ± 0.0058
150. RIHAVINLLMND  0.651 ± 0.039
151. PCMCKRNKQYRG  0.649 ± 0.016
152. PDLGRQPGGSET  0.647 ± 0.052
153. GRLFGVVSLCLL  0.647 ± 0.035
154. ICYGIHYAQRGS  0.646 ± 0.069
155. LRPPPPPASVCR  0.646 ± 0.029
156. GDKGLRPNMGLV  0.645 ± 0.0099
157. RVGPLLLTAGPR  0.644 ± 0.029
158. PLSPPAPSPAPR  0.644 ± 0.0071
159. LQTLPAPHTPFP  0.643 ± 0.039
160. VLSSARKEVIIG  0.643 ± 0.03
161. STGACCGTVRLL  0.642 ± 0.0085
162. NARMPPHIVAGI  0.64 ± 0.034
163. CRGWWRPGLGVT  0.64 ± 0.015
164. KKNAHANKIGND  0.639 ± 0.086
165. SPLPPHPPLPLL  0.6395 ± 0.002
166. IKSKKKKKRNKR  0.638 ± 0.032
167. GGLRGERAGTDG  0.637 ± 0.02
168. ELVISTGRLQKS  0.637 ± 0.019
169. ATQPPPPPLPPI  0.636 ± 0.052
170. PGWPISNLGHAL  0.634 ± 0.077
171. RPRGRGRSRGDT  0.633 ± 0.037
172. GAGNVGSGCGGG  0.631 ± 0.035
173. RNRRKEMKKGRE  0.631 ± 0.034
174. PTKRHRKAPGTN  0.629 ± 0.069
175. GRWGGRLSWAPG  0.628 ± 0.03
176. PPLVPPTPAFPP  0.623 ± 0.028
177. RRINRRGPRMME  0.62 ± 0.015
178. AVNEHVPILFLL  0.62 ± 0.073
179. VRATNLSSVGIF  0.619 ± 0.011
180. CVQVMTWAMLEC  0.618 ± 0.022
181. FCWCARPLSWYN  0.615 ± 0.027
182. GHIQDSLSPDPH  0.613 ± 0.013
183. TPVSTNHFYTLE  0.613 ± 0.0094
184. IRCGQFSVVSES  0.6 ± 0.028
185. PPPPPPPLVPPS  0.595 ± 0.036
186. IKLCRSTVVTGV  0.592 ± 0.013
187. RLSCFLVWFPFW  0.5924 ± 0.0021
188. WTFPWICFLGFG  0.589 ± 0.029
189. RVLSQAGSYSLC  0.587 ± 0.019
190. VRWSRMGCNWGG  0.585 ± 0.093
191. LLSPHPSCRPTP  0.584 ± 0.037
192. PPLSVLPFRFIL  0.575 ± 0.048
193. PPPTPSPPPLPP  0.5748 ± 0.0057
194. GVVRSAPEAASL  0.573 ± 0.03
195. GWFVVYQIGSEV  0.564 ± 0.063
196. CSLWVLKLFLGV  0.544 ± 0.012
197. PAPPPSPRILLL  0.542 ± 0.042
198. SPKPPPHPPPPA  0.535 ± 0.0095
199. PYFLLLVSIPPS  0.525 ± 0.0056
200. SLKHRSSLRQLI  0.519 ± 0.01
201. LTACLRRTNTLM  0.503 ± 0.0041
202. CGLSLRVICLEV  0.497 ± 0.02
